Laboratory results from patent US8614369B2, “Enzymes involved in triterpene synthesis” (Plant Bioscience Limited, priority 2007, dated 2013).

Assay: Activity of AsGT2 towards salicylate (radioactive TLC assay and LC-MS assay)
Type: biochemical
Parameters: key: A “+” denotes activity
Details: acceptor substrate salicylate; sugar donor L-arabinose; recombinant AsGT2 expressed in E. coli
Procedure: Radioactive assays with a complex acceptor substrate were used to detect low level activity with pure or enriched substrates. The assays contained 4 μl ^14C-UDP-glucose, 25 μl 50 mM potassium phosphate buffer pH 7.6, 0.25 μl 100 mM acceptor substrate in DMSO, 5 μl of the dialyzed protein preparation, and 3 μl 10 mM DTT. The reaction proceeded at 28 degrees Celsius for 2.5 hours shaking gently before stopping by the addition of 50 μl chloroform:methanol (2:1). The aqueous phase was extracted three more times with chloroform methanol and the solvent phases were pooled. The extracts were dried down at 60 degrees Celsius and resuspended in 40 μl of chloroform:methanol. The aqueous phase was dried down also and resuspended in water. A silica-gel TLC plate was loaded with 15 μl of the extracts and chromatographed with chloroform:methanol:water (13:6:1) against standards.
The acceptor substrates tested were β-amyrin-arabinoside, benzoic acid and salicylic acid. The sugars donors tested were D-glucose and L-arabinose.
To confirm the chemical structures of the products visualized by the radioactive assay a non-radioactive LC-MS assay was developed. […] Reactions were stopped by the addition of 100% methanol, which was then evaporated from the reaction at 50 degrees Celsius, and were analysed by LC/MS/MS using reversed-phase chromatography. […]

B1: AsGT2: family 1 glucosyltransferase from Avena strigosa (SEQ ID NO:6), expressed in E. coli and purified (protein, listed as Avena strigosa)
chain: MGAEWEHVSDIHVLLLPYPVQGHINPMLQFGKRLAHIGGVGVRCTLAITPYLLRQCQDPCPGAVHLVEISDGFDSAGFEEVGDVAAYLAGMESAGSRTLDELLRSEAEKGRPIHAVVYDAFLQPWVPRVARLHGAACVSFFTQAAAVNVAYSRRVGKIEEGLPAGFEAEDLPTFLTLPLPYQDMLLSQFVGLDAVDHVLVNSFHELQPQESAYMESTWGAKTVGPTVPSAYLDKRITDDVSYGFHLYTPMTATTKAWLDAQPPRSVTYVSFGSMATPGPTEMAEMAEGLHSSGKAFLWVVRASEASKIPDGFQERVGGRGLVVTWVAQLEVLAHGAIGCFVTHCGWNSTMEALGAGVPMVAVPQWSDQPTNAKFVEDVWCVGVRARRDPEGVVRREELERCIREVTGDDKYACNALDWKEKSKRAMSQGGSSDMNITEFLQALRRSRKSYEAKPIEPLLVGLDA
In the case of B1, the “Activity of AsGT2 towards Salicylate, L-Ara” value is reported as “+”.
